Consider one substance from paper doi:10.1101/2022.01.06.475303.

For the experiment, the target named is SARS-CoV-2 receptor binding domain (RBD), Wuhan-1 (SARS-CoV-2 Wuhan-Hu-1) (UniProt P0DTC2).

For the substance CC6.33 IgG (antibody), the neutralization IC50 against pseudotyped SARS-CoV-2 (Hela-hACE2 cells) worked out at 0.228 µg/mL.
